From article PMC7480387 come the findings set out here.

Series [1] deals with T1, GST-SfbR2 (Streptomyces filipinensis DSM 40112), ORF:2e1db1fa.
T1 sequence: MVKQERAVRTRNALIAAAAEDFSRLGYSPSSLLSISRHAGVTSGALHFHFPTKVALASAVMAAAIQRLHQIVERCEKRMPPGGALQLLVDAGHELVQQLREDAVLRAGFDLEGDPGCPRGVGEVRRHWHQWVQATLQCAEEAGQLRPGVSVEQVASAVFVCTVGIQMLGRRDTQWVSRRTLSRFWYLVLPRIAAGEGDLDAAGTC
Briefly: EMSA. As to conditions: EMSA: 100 mM HEPES pH 7.6, 10 mM KCl, 5 mM MgCl2, 1 mM DTT, 1% Tween 20, 7.8 mM glutathione, 40 ug/ml poly[d(I-C)], 5% glycerol, 30 C, 10 min; 0.005 ng/ul ….

The subject of series [2] is T2, GST-SfbR (Streptomyces filipinensis DSM 40112), ORF:e6e403b8.
T2 sequence: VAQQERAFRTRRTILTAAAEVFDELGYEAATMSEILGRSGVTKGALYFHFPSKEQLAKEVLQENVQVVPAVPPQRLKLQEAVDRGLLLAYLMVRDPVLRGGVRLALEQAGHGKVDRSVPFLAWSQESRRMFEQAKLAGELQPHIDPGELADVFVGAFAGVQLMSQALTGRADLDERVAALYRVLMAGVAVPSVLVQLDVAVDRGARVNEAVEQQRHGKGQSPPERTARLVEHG
Briefly: EMSA. The settings on record: EMSA: 100 mM HEPES pH 7.6, 10 mM KCl, 5 mM MgCl2, 1 mM DTT, 1% Tween 20, 7.8 mM glutathione, 40 ug/ml poly[d(I-C)], 5% glycerol, 30 C, 10 min; 0.005 ng/ul …. For orientation: In EMSA bound probe runs differently from free probe, usually more slowly.

“GCGTGCTGCCCAGCCGTGCTGCAAAGCCGCCGAGTACTTCGATGTCCATCTCTCTCCCCCAGATCCGTACGCGCGGGGCCCGTCAGGCACGCGCGGGGTGTGGCGTAGCTCAGGGAACTCGGGACTTGCTTGACCACCAAATTAAACAGCATGGCCGGTTCTTTCTCCAGTGGAACCCGAGGATCCGTGCCGGCGCCGCCCGCGGCCCGCGCCGCGGGGCGCGGGTCCGCGGTCGGCGTCCTCGCAGGTCTGTCCGTGTGCCGGGGTGGTGTGC (double strand) [sfb7p]”: the binding entry in series [1] and in series [2] was “binds” throughout.
